Measurements taken from PMC7550704 (Molecular Biology of the Cell, 2020).

Target: T1, Sgo1^1–150-His6-MBP (X. laevis, UniProt Q4KLP8 1-150)
T1 sequence (looked up): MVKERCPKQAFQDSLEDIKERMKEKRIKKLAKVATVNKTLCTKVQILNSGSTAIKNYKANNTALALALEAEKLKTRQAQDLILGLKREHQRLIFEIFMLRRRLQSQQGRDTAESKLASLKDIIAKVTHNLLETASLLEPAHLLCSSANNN
Assay: supernatant depletion

B1: GST-Borealin-2^216–296 (domain or fragment)
chain: not shown
**Q.** For B1, which Kd is on record?
**A.** 10 ± 1.6 µM
